Experimental data taken from a protein production outcome set (Wang et al. 2014).

Assay: label from the status in PepcDB records

Sequence	protein production
MPKKVVPEEARRRRRPTRQGAVLSEGLIVRTALRMLREHGTGGLTARRLGAALGADPSTLYRYFAGMDDLARAVGNELMGQALDGWTAQGDWRADLRSLGLALHSSYLAHPQAAVLTASRVSGRPREIAVDEAILGLLRGAGLTDRAAVRFYHAFIDLALAFAALDAGSLALPEEARRSDEDMWGTTYARLPAETHPNIAATAERLAARMPHSAYPVVLDTLLDGIAAELTGTAPEM	not failed
MPKPLRCITIAFTDLPNEYKIVLGYLTYHSGRLFNQALYSIKTKQAKVNTYDLYNKLKDNSLHLKNLQSRCAQIVLDELVRAFKNWFEFLHNPEKFKGQEVKPPKFRPKNKPHRTITYDQTGFKVVGTKIRLSLSKALRQWLKEKHGIELKYLWLDTGLELDERLIKNIQIVPKANAKEFELHIIYEKPQNGEKLLKQDKVMVLDPNSSNFFAIVIEGIPQPYIIDGNGLKSLLRKYLKKIASLQSRLEGAKKKGFLTHFLEERISRLWLKVKRLLKHYAHTISNLILELALKYGVRKIYIGDAARNKNKESKLSSVADQIWSLLPHGKVKEYLEYKAKEYGIEVEYISEAYTSGVDSSVEGAVNKETYTPEARVKRGLFRTRLLGFLNADVNACRNLLKKLGKFDLISGILRPIRLRVFFKLRESSSAIPLYGGIGRSRGGVNLPVVVRHSKEGVNPPEAPHL	failed
MPKSADQGGSPASASHEALRHILDAGASMGGLQGLDEAQQQALYAIGHGAYEQGRYADALKMFCLLVACDPLEARYLLALGAAAQELGLYEHALQQYAAAAALQLDSPRPLLHGAECLYALGRRRDALDTLDMVLELCGSPERAALRERAELLRRSYARAD	failed
MPKVSVVIPAYNAMPYLPETLESVLRQTYHDFEVVVVNDGSSDNTEEWVSQILDPRLKLISQANQGLAGARNTGIVNASGEYIAFLDADDIWEPTKLAKQVSVLDENPTVGLVYTWVAYIDEQGKSTGKIFKNQVEGYVWPQLTEHNIVECGSVALVRRVCFEKMGLFDRNLGSYVEDWDMWLRIATSYDFKVVKEALVYYRQRSNSASKNWEAMAHSFAIVIEKAFATASQDLQVLKNKSYGFTYLCLAWKPLQSFQKDYQKSREFCQQAVAYYPSLRFSQEYIRLSIAINLMRWFGADGYSKLLPLFHTMRRVKLALQK	failed
MPKVSVVTGFYNRCEHLERTIESILNQTYSDFELIVFDDASTDGTASRLLELKEKYDDPRFRFIIHEENKGFVKGLSEAISGAKGQYIAVQGSGDVSLPRRLELQVEFLDANPSVGAVGGAIYNIQEDTGTRNPQRFEKPIATFDDLLTSNPFTHGEVMYRLDLYKSIGGYRSGFTFAQDRDLWLRMAKKADLGIIPDFLYHRYTLLDGVSFVPDKTIRQRCFSEAAVRLALMPEEEGALAYSRLEAEGPTAVVPIADRAVQKFVPKAAIRLCLYGAPETGLHMARDYIQNPLRRTIVVVLISIYSSRLIKPLQDILYKSIFKGVSISKPIKSSLVKFTRRIQGK	failed
MPLCLKINKKHGEQTRRILIENNLLNKDYKITSEGNYLYLPIKDVDEDILKSILNIEFELVDKELEEKKIIKKPSFREIISKKYRKEIDEGLISLSYDVVGDLVILQISDEVDEKIRKEIGELAYKLIPCKGVFRRKSEVKGEFRVRELEHLAGENRTLTIHKENGYRLWVDIAKVYFSPRLGGERARIMKKVSLNDVVVDMFAGVGPFSIACKNAKKIYAIDINPHAIELLKKNIKLNKLEHKIIPILSDVREVDVKGNRVIMNLPKFAHKFIDKALDIVEEGGVIHYYTIGKDFDKAIKLFEKKCDCEVLEKRIVKSYAPREYILALDFKINKK	not failed
MPLPPSNGMGTAALVLGIISTVVFCLWPLAIVMGVLSVVFGVIGRRRARRGEATNAGQALAGIICGAVGIVLGVAFMVIIFAAAESSSDPWSTTDDSYSTSLVVHADR	failed
MPLSYLSPSSSEERSDDPSKYDGDFGVPQICFCGKQLDLGWDLAVHEQCFCIDKRFGEHRELIQNAFKFGGDSNRLQINQIRAEIEDLKDRLDKKDAEITRLMDALGKK	failed
MPLVLDLARPVSEEELRRLSELNPGYQWERSPEGRLWVSPTGGESGRRSLQLAYQLARWNEERGLGVVFDSSTGFKFPDGSILSPDAAFVERGAWEALSEAEREGFPPLAPKAVFEVRSASQDPEELRAKMGIYLRNGVLLGVLVDPYARAVEVFRPGKPPLRLEGVERVSLDPELPGFALSLPPLW	not failed
MPMPTMSQAPHSVRPLNRGHWIATYFIGVAGLSLALMLVLNLILLTTSQNPGKALLDSLSFSVAVLMVSLVLITLIAALPCILFFWLAQRFTWRHLWIYLVSGALAAQFAIPVMTKLLPELFNLPHGVSAALHYLQLASMFGGCGVFMGGLFWWRSGRHLR	failed
MPMTVVSGRFSTALLPTCFSLSRLHSVKYAAQRRVVFVSRSAHASSASVSVETNSNSNVDFVIEKKDKNRGEKKILACPICYNSLAWISQPNGLIESAASGIQVQCNTCKRSYSGNETHLDLAVASGSKRYSEPMPLSTELFRTPLVSFLYERGWRQNFIWGGFPGPEKEFEMAKAYLKPVLGGNIIDASCGSGMFSRLFTRSDLFSLVIALDYSENMLRQCYELLNKEENFPNKEKLVLVRADIARLPFLSGSVDAVHAGAALHCWPSPSSAVAEISRVLRPGGVFVATTFIYDGPFSFIPFLKNLRQEIMRYSGSHIFLNERELEDICKACGLVNFTRVRNGPFIMLSATKPS	failed
MPNMGIEKLYVSQQLTDSAAGMTFTKPQYYKYVQELSLKPKVNSASAYAENRKVDQDTQFDSCDVSINLFQMTSSQRAFMLGQSLAGGGGAIGALNDKAPWITLLYKAPIKVDDTIYYRYGVIYKTQFQPPDDDYKTTEGKPDFSQVPKISGSAQPTEWSFKDGKLEKHPWEWHVDTCDPNCPENIDDTWFNSVSIPSLVTYGSLSLSASSPKDGATGISLDTKPSLTFNNPIMNATSILLYNVSDGATVNTTTSSDSSGKIITITPSTNLVANKNYVLVVQDVTDLYGQTLDTQLIRFTTATAASLEHHHHHH	not failed
MPNPRRIVFGDVHGHFDALTALFEAIAPNERDGVYFVGDLIDRGPESAKVVDFVMENKYHCLLGNHEQMMLDAVGGFNFSPQLLHAWIYSGGKSTLESYEHQIPQSHVDWMRNLPLYLDLGDVWLVHAGVDPRLPIEEQGEAQFCWIRDEFHRYPYPYFANKLIITGHTITFTFANVEPGKLVSGPGWLDIDTGAYHPKSGWLTALELNNQEVYQAHIFTNEVRRLPLEDAVVPLPPQNLHRLEHHHHHH	failed
MPNYINYPSWLHPEVIQGIPITWYSLSYILIILISYKFIWYQIQSDNVDIKKEDYEIFMFSLVLGAILGGRLASTLVYDKSGIYYSNPWLILLPFDQHWNFTGFRGMAIHGGFLGAIIAPLITINTNLKNTNVQKYFLKLTDYGSIAFSSGYILGRLANFANAELYGRVMKGGIIFPNAEPFDTNIPGVKEFASSVGLEISPHDLLINLPRIPSQLIEGFFEGPVTFLLLWFLFKKIKKYDGFIFGVYVMLYAFFRFFIEYLREPDKELGFIITYKPITSLSEFSFLNISMGQILSLTLMLSGLIWIIVTKKIADKKIKNNTNLAYKN	failed
MPPAPVFLLLAAGASRRMRGADKLMEPVAGEPLLRLQARRGIAAGLAVLVTLPPDRPERWAALEGLAVQRLPVPDAAEGLAASIRAGVAAAPPDAAVLLLLADLPEIEATDLAQMAALHREAPKALLRATTADGRPGHPILFPADLRPELQALKGDQGARRILERAAGRLRLVPLAGTRAVTDLDTPEDWALWRARTGHLEHHHHHH	failed
MPPHASQVSVVVIGYDDAAHVTDAVRSALAQGPAVREVIAVDDCSSDGSPGLLDALAVEDTRVRVLRREVNSGGCGTPRNDGIDAATAPYTMFLDSDDMLPPGAVEALLAAADRHGAQVAAGLCVRRELPSGREVPWQPELYTEPALVPHPARLRRLVHDTLCVNKLYRTDFLREHAIRFPDGRFPYEDFVFSARVLAAGPRMALVPDTVYVWHVRRSAERLSISLDRAGIDNWQARMAAAAQAYDILLGAGEKRLARAARAKFLDHELRMYTRELDLRGTEYRREWWTLTRAYLSAFDAAEFALAPAPGRVIARVVLAAEEPRDLPRLKELAARPARLHPPYARAADGTPVWSADLPQVPLDHVLVRPMHLLPVAVDAELRPRARGTRLRLRLHELYGRVADAGPASVNLEFVHREGGRVGTAATAPLLADPEFDTWSAEVPVDLAALGSGTWDLRLTLRFHDGTSRDTTAHAVAGPGLLRRGVVPSGRHGVLLVQPYATHSGALALRVATGIQGVTSVMGRRLRRLLHW	failed
MPPLCPLPTGGKRTNLHQYRHATRAMTDRLSPERRRYLMQQVRSKNTRPEKAVRSLLHSIGYRFRLHRKDLPGTPDIVFPSRRLVLFVHGCFWHGHGCRIGQLPKSRLDYWSPKIEANRARDQRKEAALAAEGWRVAVVWQCELSDLGALEARLRNILDPS	failed
MPPPLRVLILEDSEDDYFLLVRALKREFDIVPERVDSEESLRANLCEKRWDIVLSDYFMPQFDALAALTLIQSMNLDIPFIIVSGKIGEFEAVKAMKAGAHDYIMKGDYTRLIPAIRRELREAVIRQEQRRTDHELREQLHFRQALIDAIPAPIYFMDTTGIFLGCNKAFEAFSGHTQDEIVGKTIYDLMPPSLAKHTDSADRELFEHGGIQIYESVISFADGALHDVIFYKATFTTTEKNIGGLVGTILDITERKQTEERLRYMSTHDTLTGLYNRAYFQEEMERLEQGRQFPVSVVVFDVDRLKYVNDSQGHAAGDELLIRAALVLKGAFRAEDVVARIGGDEFAVLLPSADADVVQEALRRVIGKIEQSQTEDHPVPLSISFGAATASKGDRLEEVLKLADRRMYENKFKKCCVLPA	failed
MPQDVMTANHVSPSNDAAAPSALDLARNQRLSLMDLLSVSEALNAAGQQAAAAELYKTWVAFNDNNPTIHLAYFNYAVMLNQLGDRAGAVQAFRACLKANPEFAPGHINLGRALEDAGLIGHAVEQWSHYAEVTKNVDAETIGHRHMTLQNMGRVLEGAGKLEEAETALLQAFELRPELPEAGQHWASLRQRQCKWPVLAPSNHISPRKMLDAMSSLTLSCYADDPMFQLAKAYRLSKTLIGARPDLSRFPRRSPKQKSGTGQRLRVGYLSSDLRDHAVGFALCEVLELHDKDSLEVFAYYCGNVRGTDSTQERIKAAVHCWRDIHGVDDATAASQIIADEIDILIDVNGYTKDARAKIFAYRPAPVIVSFCGYPGSMGSPFHQYLISDGYMIPPENEIYYSEKVLRIACDQPLDRKRPVAARPSRADVGLPEDAFVYASFNGMQKITENCFARWMTILSETPGSLLWLLTGDDDVNQRLRDLAEKSGVASERLVFAPKAQNPQHIARIGLADLFLDTFPYGAHSTASDAITSGLPVLTMYGKTFAARFCGSIVTAAGVPEMICSSPEDYVARAIGFERDRQSLLEVRESIARQRETSVLRDIPALARRLEELFWQMQGECERGETPVPDLSNLDIYYEAGAEALLENIEFEDEQSYRERYLKKLRQWHDYAPIPYDRRLWQNPDN	failed
MPQPRRSTGSKLTYRPVGYVNAMSEQDEVPSEDRRKYEFRKVIEELKDYEGSGTQLVTIYIPPDKQISDVVAHVTQEHSEASNIKSKQTRTNVQDALTSIKDRLRYYDTFPPDNGMVVFSGAVDSGGGRTDMVTEVLESPPQPIESFRYHCDSAFLTEPLAEMLGDKGLYGLIVLDRRESNVGWLKGKRVQPVKSAESLVPGKQRKGGQSAQRFARLRLEAIDNFYQEVAGMADDLFVPKRHEIDGILVGGPSPTKDEFLDGDYLHHELQDKVLGKFDVSYTDESGLSDLVDAGQAALAEADLMDDKSDMEEFFEELNGGKLATYGFEQTRRNLIMGSVDRLLVSEDLREDVVIYECPNDHEEYETIDRRNTSPEHTCSDCGEEATEVDREDAIDHLMSIADQRGTETHFISTDFEKGEQLLTAFGGYAGILRYSTGV	failed
MPRASISDTIPMTMASIDAGSVRFTARADKRHLNPLGGVHGGFAATVLDSVTGCAIHSILEAGVGYGTVDLSVKRVKAVPEDTPLVAEGRVLHVPCAIGSQRADLMLAPPRLGRDRRCPAGLEHHHHHH	failed
